Measured values taken from patent publication US20220049002A1 (KINDRED BIOSCIENCES, published 2022).

Key:
[1] = biological target: Equine IL4R-ECD_C-HuFc_His6 (processed) (equine); assay: Western blot, reducing and non-reducing SDS-PAGE
Procedure: (§1) Cross-reactivity of Clone I antibody to feline, equine, murine, and human IL4R was also investigated. Canine IL4R-ECD_C-HuFc_His6 (SEQ ID NO: 109), feline IL4R-ECD_C-HuFc_His6 (SEQ ID NO: 111), equine IL4R-ECD_C-HuFc_His6 (SEQ ID NO: 113), murine IL4R-ECD_C-HuFc_His6 (SEQ ID NO: 115), and human IL4R-ECD_C-HuFc_His6 (SEQ ID NO: 117) (0.1 μg/lane) were each separated by SDS-PAGE under reducing (+DTT) or non-reducing (−DTT) conditions. The proteins were transferred to PVDF membranes and the blots were probed with Clone I antibody (0.3 μg/mL) and visualized by goat anti-mouse IgG-HRP (FIG. 4A). As a control, the blot was stripped and probed with goat anti-human IgG Fc-HRP to visualize the presence of the IL4R-ECD proteins (FIG. 4B). Clone I antibody immunoreacted with canine IL4R-ECD_C-HuFc_His6 and to a lesser extent with feline IL4R-ECD_C-HuFc_His6 under non-reducing conditions (FIG. 4A, lanes 5 and 1, respectively).

[2] = biological target: Murine IL4R-ECD_C-HuFc_His6 (processed) (murine); assay: Western blot, reducing and non-reducing SDS-PAGE
Murine IL4R-ECD_C-HuFc_His6 (processed) (murine), sequence (chain, as listed by the source limits assumed): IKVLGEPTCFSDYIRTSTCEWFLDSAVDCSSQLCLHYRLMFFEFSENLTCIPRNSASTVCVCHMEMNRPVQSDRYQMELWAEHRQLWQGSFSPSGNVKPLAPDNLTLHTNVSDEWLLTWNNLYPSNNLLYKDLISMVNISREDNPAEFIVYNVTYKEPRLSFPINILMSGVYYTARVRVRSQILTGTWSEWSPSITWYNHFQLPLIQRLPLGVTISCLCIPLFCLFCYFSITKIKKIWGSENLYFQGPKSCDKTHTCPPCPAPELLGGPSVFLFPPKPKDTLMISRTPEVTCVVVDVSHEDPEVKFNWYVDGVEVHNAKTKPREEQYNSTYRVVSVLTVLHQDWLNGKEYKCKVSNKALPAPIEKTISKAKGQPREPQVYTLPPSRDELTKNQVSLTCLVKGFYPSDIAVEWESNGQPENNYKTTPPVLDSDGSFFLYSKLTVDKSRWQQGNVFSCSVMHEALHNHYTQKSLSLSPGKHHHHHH
Procedure: as §1

[3] = biological target: Human IL4R-ECD_C-HuFc_His6 (processed) (human); assay: Western blot, reducing and non-reducing SDS-PAGE
Human IL4R-ECD_C-HuFc_His6 (processed) (human), sequence (chain, as listed by the source limits assumed): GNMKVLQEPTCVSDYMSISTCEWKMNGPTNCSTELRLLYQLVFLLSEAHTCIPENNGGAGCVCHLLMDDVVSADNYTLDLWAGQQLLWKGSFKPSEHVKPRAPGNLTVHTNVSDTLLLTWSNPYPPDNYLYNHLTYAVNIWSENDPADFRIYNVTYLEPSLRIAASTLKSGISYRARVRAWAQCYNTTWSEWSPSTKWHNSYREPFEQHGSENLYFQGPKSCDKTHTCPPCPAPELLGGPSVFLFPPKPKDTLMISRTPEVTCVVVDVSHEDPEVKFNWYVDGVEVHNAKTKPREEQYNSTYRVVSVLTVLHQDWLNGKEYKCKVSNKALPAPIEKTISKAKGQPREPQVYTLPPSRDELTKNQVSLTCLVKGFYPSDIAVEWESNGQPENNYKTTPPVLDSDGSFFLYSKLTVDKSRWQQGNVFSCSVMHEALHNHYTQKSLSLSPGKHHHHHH
Procedure: as §1

[4] = biological target: Feline IL4R-ECD_C-HuFc_His6 (processed) (feline, biotinylated in the Octet assay of Example 10); assay: BLI (Octet): biotinylated feline IL4R-ECD_C-HuFc_His6 on streptavidin tips, Clone I 25 ug/mL, 1:1 model
Feline IL4R-ECD_C-HuFc_His6 (processed) (feline, biotinylated in the Octet assay of Example 10), sequence (chain, as listed by the source limits assumed): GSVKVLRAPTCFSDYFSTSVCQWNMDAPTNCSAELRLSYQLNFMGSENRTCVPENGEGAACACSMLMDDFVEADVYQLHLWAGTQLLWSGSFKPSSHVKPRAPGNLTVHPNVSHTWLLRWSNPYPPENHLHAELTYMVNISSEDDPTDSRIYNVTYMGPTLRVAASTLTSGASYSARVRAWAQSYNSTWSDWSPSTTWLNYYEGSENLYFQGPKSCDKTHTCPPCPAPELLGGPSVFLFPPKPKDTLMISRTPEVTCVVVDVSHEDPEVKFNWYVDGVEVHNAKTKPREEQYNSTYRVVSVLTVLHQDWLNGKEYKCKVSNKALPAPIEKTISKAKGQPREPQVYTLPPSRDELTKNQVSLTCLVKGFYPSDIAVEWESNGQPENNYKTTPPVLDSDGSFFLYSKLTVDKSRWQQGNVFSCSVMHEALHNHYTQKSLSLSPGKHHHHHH
Procedure: This finding was consistent with in vitro binding affinity measured by Octet Biosensor. Biotinylated feline IL4R-ECD_C-HuFc_His6 (SEQ ID NO: 111) was captured on streptavidin sensor tips. The association of Clone I antibody (25 μg/mL) and feline IL4R-ECD_C-HuFc_His6 was monitored for 600 seconds. Dissociation was monitored for 600 seconds. A buffer only blank curve was subtracted to correct for any drift. The data were fit to a 1:1 binding model using ForteBio™ data analysis software to determine the kₒₙ, koff, and the Kd. The buffer for dilutions and all binding steps was 20 mM phosphate, 150 mM NaCl, pH 7.2.

[5] = biological target: Canine/Human IL4R-ECD_C-HuFc_His6_Hybrid13 (canine/human hybrid); assay: Western blot, non-reducing, 293 supernatant concentrated 3-fold
Canine/Human IL4R-ECD_C-HuFc_His6_Hybrid13 (canine/human hybrid), sequence (chain, as listed by the source limits assumed): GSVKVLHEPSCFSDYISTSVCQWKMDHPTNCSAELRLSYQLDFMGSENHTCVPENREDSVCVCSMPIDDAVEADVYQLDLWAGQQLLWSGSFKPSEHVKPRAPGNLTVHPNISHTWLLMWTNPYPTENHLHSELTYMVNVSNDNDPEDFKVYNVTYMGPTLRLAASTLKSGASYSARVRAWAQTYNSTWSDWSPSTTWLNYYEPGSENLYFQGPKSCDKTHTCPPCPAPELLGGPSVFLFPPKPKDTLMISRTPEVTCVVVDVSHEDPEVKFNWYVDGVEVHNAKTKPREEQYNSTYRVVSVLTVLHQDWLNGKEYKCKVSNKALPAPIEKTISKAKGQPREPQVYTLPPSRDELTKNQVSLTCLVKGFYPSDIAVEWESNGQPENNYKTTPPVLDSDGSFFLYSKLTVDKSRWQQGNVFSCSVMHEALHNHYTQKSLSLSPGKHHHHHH

[6] = biological target: Canine/Human IL4R-ECD_C-HuFc_His6_Hybrid6 (canine/human hybrid); assay: as above
Canine/Human IL4R-ECD_C-HuFc_His6_Hybrid6 (canine/human hybrid), sequence (chain, as listed by the source limits assumed): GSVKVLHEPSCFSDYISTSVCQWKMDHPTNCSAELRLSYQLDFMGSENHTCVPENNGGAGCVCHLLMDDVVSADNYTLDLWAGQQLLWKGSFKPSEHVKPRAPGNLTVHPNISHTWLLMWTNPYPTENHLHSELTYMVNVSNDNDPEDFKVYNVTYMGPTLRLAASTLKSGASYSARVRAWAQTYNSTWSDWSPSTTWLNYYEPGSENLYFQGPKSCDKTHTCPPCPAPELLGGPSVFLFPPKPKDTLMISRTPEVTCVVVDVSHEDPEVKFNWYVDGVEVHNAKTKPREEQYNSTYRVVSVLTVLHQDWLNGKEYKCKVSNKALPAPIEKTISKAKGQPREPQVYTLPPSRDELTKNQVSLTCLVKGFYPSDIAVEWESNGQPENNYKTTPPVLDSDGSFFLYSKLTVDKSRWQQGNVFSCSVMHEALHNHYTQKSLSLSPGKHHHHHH

[7] = biological target: Canine/Human IL4R-ECD_C-HuFc_His6_Hybrid1 (canine/human hybrid); assay: as above
Canine/Human IL4R-ECD_C-HuFc_His6_Hybrid1 (canine/human hybrid), sequence (chain, as listed by the source limits assumed): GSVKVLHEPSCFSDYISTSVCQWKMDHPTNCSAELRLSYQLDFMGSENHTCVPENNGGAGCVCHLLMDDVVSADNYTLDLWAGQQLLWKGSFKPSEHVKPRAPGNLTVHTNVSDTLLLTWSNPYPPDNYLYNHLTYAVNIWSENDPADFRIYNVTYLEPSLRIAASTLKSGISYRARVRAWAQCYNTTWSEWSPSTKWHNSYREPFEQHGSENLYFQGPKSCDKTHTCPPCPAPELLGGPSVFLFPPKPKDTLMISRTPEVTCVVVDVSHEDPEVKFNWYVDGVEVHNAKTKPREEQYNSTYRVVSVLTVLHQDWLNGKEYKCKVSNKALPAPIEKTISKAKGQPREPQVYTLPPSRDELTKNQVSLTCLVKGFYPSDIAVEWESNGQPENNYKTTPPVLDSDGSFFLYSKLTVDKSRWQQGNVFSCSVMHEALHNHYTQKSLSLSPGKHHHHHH

Equine IL4R-ECD_C-HuFc_His6 (processed) (equine), sequence (chain, as listed by the source limits assumed): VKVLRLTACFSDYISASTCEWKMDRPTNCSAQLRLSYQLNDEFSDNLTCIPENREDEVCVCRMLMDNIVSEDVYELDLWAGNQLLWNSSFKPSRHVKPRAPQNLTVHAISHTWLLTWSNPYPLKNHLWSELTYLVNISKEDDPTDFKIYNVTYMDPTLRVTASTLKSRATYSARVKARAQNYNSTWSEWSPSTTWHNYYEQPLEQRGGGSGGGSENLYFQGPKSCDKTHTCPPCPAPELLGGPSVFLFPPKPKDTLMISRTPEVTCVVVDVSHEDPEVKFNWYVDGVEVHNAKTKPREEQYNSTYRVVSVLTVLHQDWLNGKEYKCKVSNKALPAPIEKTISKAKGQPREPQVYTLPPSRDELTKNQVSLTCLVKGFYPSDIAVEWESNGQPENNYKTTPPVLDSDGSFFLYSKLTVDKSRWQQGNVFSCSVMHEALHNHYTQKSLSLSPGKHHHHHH

B1: Clone I antibody (mouse monoclonal anti-canine IL4R) (antibody, mouse IgG1, kappa, V domains shown)
VH: EVQLQQSGPELVKPGASVKMSCKASGYTFTSYVMHWVKQKPGQGLEWIGYINPNNDGTFYNGKFKGKATLTSDKSSSTAYMELSSLTSEDSAVYYCAAFYYGFAYWGQGTLVTVSA
VL: DIVLTQSPSSLSASLGERVSLTCRASQEISGYLSWLQQKPDGTIKRLIYAASTLDSGVPKRFSGSRSGSDFSLTISSLESEDFADYYCLQYASYPWTFGGGAKLEIKR
notes: Mouse IgG; also called anti-IL4R-mAb Clone I
Q: What does the source list for B1?
A: binding result [1]: no binding (tested: Clone I 0.3 ug/mL; 0.1 ug/lane); binding result [2]: no binding (tested: Clone I 0.3 ug/mL; 0.1 ug/lane); binding result [3]: no binding (tested: Clone I 0.3 ug/mL; 0.1 ug/lane); Kd [4]: 1.1 nM; binding result [5]: binds; binding result [6]: binds; binding result [7]: binds
